# B1: LINE1-full (parent)
# chain: UACGUAGGUGGUUUUCCCCUGAUAGUGCUAAGGGGGCCUGGAAGUUUGGACUGGGCAGAGCUCAACACAGCGUGGCAAAGUGGCUGUGGCUAGACUGCCUCUCUGGAUUCCUCGUCACUCAGCAGGGCAUCUCUGAGAGAAAUGCC
# Variants of: B1
# Experiment: self-cleavage, relative activity (ratio to wild type); higher = more cleavage; in vitro, sequencing; the parent is a self-cleaving ribozyme
row,Variant,self-cleavage
1,UACGUAGGUGGUUUUCCCCUGAUAGUGCUAAGGGGGCCUGGAAGUUUGGACUGGGCAGGGCUCAACACAGCGUGGCAAAGUGGCUGUGGCUAGACUGCCUCUUUGGAUUCCUCGUCACUCAGCAGGGCAUCUCUGAGAGAAAUGCC [A59G C103U],0.06
2,UACGUAGGUGGUUUUCCCCUGAUAGUGCUAAGGGGGCCUGGAAGUUUGGACCGGGCAGAGCUCAACACAGCGUGGCAAAGUGGCUGUGACUAGACUGCCUCUCUGGAUUCCUCGUCACUCAGCAGGGCAUCUCUGAGAGAAAUGCC [U52C G89A],0.05
3,UACGUAGGUGGUUUUCCCCUGAUAGUGCUAAGGGGGCCUGGAAGUUUGGACUGGGCAGAGCUCCACACAGCGUGGCAAAGUGGCUGUGGCUAGACUGCCUCUCUGGAUUCCUCGUCACUCAGCAGGGCAUCUCUGAGAGGAAUGCC [A64C A140G],0.24
4,UACGUAGGUGGUUUUCCCCUGAUAGUGUUAAGGGGGCCUGGAAGUUUGGACUGGGCAGAGCUCAACACAGCGUGGCAAAGUGGCUGUGGCUGGACUGCCUCUCUGGAUUCCUCGUCACUCAGCAGGGCAUCUCUGAGAGAAAUGCC [C28U A92G],0.11
5,UACGUAGGUGGUUUUCCCUUGAUAGUGCUAAGGGGGCCUGGAAGUUUGGACUGGGCAGAGCUCAACACAGCGUGGCAAAGUGGCUGUGGCUAGACUGCCUCUCUGGAUUCCUCGUCACUCAGCAGGGCAUCUCAGAGAGAAAUGCC [C19U U134A],0.81
6,UACGUAGGUGGUUUUCCCCUGAUAGUGCUAAGGGGUCCUGGAAGUUUGGACCGGGCAGAGCUCAACACAGCGUGGCAAAGUGGCUGUGGCUAGACUGCCUCUCUGGAUUCCUCGUCACUCAGCAGGGCAUCUCUGAGAGAAAUGCC [G36U U52C],1.19
7,UACGUAGGUGGUUCUCCCCUGUUAGUGCUAAGGGGGCCUGGAAGUUUGGACUGGGCAGAGCUCAACACAGCGUGGCAAAGUGGCUGUGGCUAGACUGCCUCUCUGGAUUCCUCGUCACUCAGCAGGGCAUCUCUGAGAGAAAUGCC [U14C A22U],2.36
8,UACGUAGGUGGUUUUCCCCUGAUAGUGCUAAGGGGGCCUGGAAGUUUGGACUGGGCAGAGCUCAACUCAGCGUGGCAAAGUGGCUGUGGCUAGACUGCCUCUCUGGAUUCCUCGCCACUCAGCAGGGCAUCUCUGAGAGAAAUGCC [A67U U115C],0.34
9,UACGUAGGUGGUUUUCCCCUGAUAGUACUAAGGGGGCCUGGAAGUUUGGACUGGGCAGAGCUCAACACAGCGUGGCAAAGUGGCCGUGGCUAGACUGCCUCUCUGGAUUCCUCGUCACUCAGCAGGGCAUCUCUGAGAGAAAUGCC [G27A U85C],0.13
10,UACGUAGGUGGUUUUCCCCUGAUAGUGCUAAGGGGGCCUGGAAGUUUGGACUGGGCAGAGCUCAACACAGCGUGGCUAAGUGGCUGUGGCUAAACUGCCUCUCUGGAUUCCUCGUCACUCAGCAGGGCAUCUCUGAGAGAAAUGCC [A77U G93A],0.02
11,UACGUAGGUGGUUUUCCCCUGACAGUGCUAAGGGGGCCUGGAAGUUUGGACUGGGCAAAGCUCAACACAGCGUGGCAAAGUGGCUGUGGCUAGACUGCCUCUCUGGAUUCCUCGUCACUCAGCAGGGCAUCUCUGAGAGAAAUGCC [U23C G58A],0.1
12,UACGUAGGUGGUUUUCCCCUGAUAGUGCUAAGGGGGCCUGGAAGUUUGGACUUGGCAGAGCUCAACACAGCGUGGCAAAGAGGCUGUGGCUAGACUGCCUCUCUGGAUUCCUCGUCACUCAGCAGGGCAUCUCUGAGAGAAAUGCC [G53U U81A],1.52
13,UACGUAGGUGGUUUUCCCCUGAUAGUGCAAAGGGGGCCUGGAAGUUUGGACUGGGCAGAGCUCAACACAGCGUGGCAAAGUGGCUGUGGCUAGACUGCCUUUCUGGAUUCCUCGUCACUCAGCAGGGCAUCUCUGAGAGAAAUGCC [U29A C101U],1.71
14,UACGUAGGUGGUUUUCCCCUGAUAGUGCUAAGGGGGCCUGGAAGUUUGGACUGGGCAGAGCUCAACACAGCGUGGCGAAGUAGCUGUGGCUAGACUGCCUCUCUGGAUUCCUCGUCACUCAGCAGGGCAUCUCUGAGAGAAAUGCC [A77G G82A],0.85
15,UACGUAGGUGGUUUUCCCCUGAUAGUGCUAAGGGGGCCUGGAAGUUUGGACUGGGCAGAGCUCAACACAGCGUGGCAAAGUGGCUGUGGCUAGACUGCCUCUCUGGAUUCCUCGUCACGCAGCAGGGCAUCUCUGAGAGAGAUGCC [U119G A141G],1.57
16,UACGUAGGUGGUUUUCCCCUGUUAGUGCUAAGGGGGCCUGGAAGUUUGGACUGGGCAGAGCUCAACACAGCGUGGCAAAGUGGCUGUGGCUAGUCUGCCUCUCUGGAUUCCUCGUCACUCAGCAGGGCAUCUCUGAGAGAAAUGCC [A22U A94U],0.17
17,UACGUAGGUGGUUUUCCCCUGAUAGUGCUAAGGGGGCCUGGAAGUUUGGACUGGGCAGAGCUCAACACAGCGUGGCAAAGUGGCUGUGGCUAGACUGCCUCUCUGGGUUCCUAGUCACUCAGCAGGGCAUCUCUGAGAGAAAUGCC [A107G C113A],1.94
18,UACGUAGGUGGUUUUCCCCUGAUAGUGCUAAGGGGGCCUGGAAGUUUGGACUGGGCAGAGCUCAACACAGCGUGGCAAAGUGGCUGUGGCUAGACUGCCUCUCUGGGUUCCUCGUCACUCAGCAGUGCAUCUCUGAGAGAAAUGCC [A107G G126U],1.48
19,UACGUAGGUGGUAUUCCCCUGAUAGUGCUAAGGGGGCCUGGAAGUUUGGACUGGGCAGAGCUCAACACAGCGUGGCAAAGUGGCUGUGGCUAGACUGCCUCUCUGGAUUCCUCGUCACUCAGCAGGGCAUCUCUGAGAGAAAGGCC [U13A U143G],1.01
20,UACGUAGGUGGUUUUCCCCUGAUAGUGCUAAGGGGGCCUGGAAGUUUGGACUGGGCAGAGCUCAACACAGCGUGGCAAUGUGGCUGUGGCUAGACUGCCUCUCUGGGUUCCUCGUCACUCAGCAGGGCAUCUCUGAGAGAAAUGCC [A79U A107G],2.26

row,Variant,self-cleavage
1,UACGUAGGUGGUUUUCCCCUGAUAGUGCUAAGGGAGCCUGGAAGUUUGGACUGGGCAGAGCUCAACACAGCGUGGCAAAGUGGCUGUGGCUAGACUGCCUCUCUGGAUUCCUCGUCACUCAGCAGGGCAUCUCUGAGAGGAAUGCC [G35A A140G],0.81
2,UACGUAGGUCGUUUUCCCCUGAUAGUGCUAAGGGGGCCUGGAAGUUUGGACUGGGCAGAGCUCAACACAGCGCGGCAAAGUGGCUGUGGCUAGACUGCCUCUCUGGAUUCCUCGUCACUCAGCAGGGCAUCUCUGAGAGAAAUGCC [G10C U73C],1.64
3,UACGUAGGUGGUUUUCCCCUGAUAGAGCUAAGGGGGCCUGGAAGUUUGGACUGGGCAGAGCUCAACACAGCGUGGAAAAGUGGCUGUGGCUAGACUGCCUCUCUGGAUUCCUCGUCACUCAGCAGGGCAUCUCUGAGAGAAAUGCC [U26A C76A],1.51
4,UACGUAGGUGGUUCUCCCUUGAUAGUGCUAAGGGGGCCUGGAAGUUUGGACUGGGCAGAGCUCAACACAGCGUGGCAAAGUGGCUGUGGCUAGACUGCCUCUCUGGAUUCCUCGUCACUCAGCAGGGCAUCUCUGAGAGAAAUGCC [U14C C19U],0.83
5,UACGUAGGUGGUUUUCCCAUGAUAGUGCUAAGGGGGCCUGGAAGUUUGGACUGGGCAGAGCACAACACAGCGUGGCAAAGUGGCUGUGGCUAGACUGCCUCUCUGGAUUCCUCGUCACUCAGCAGGGCAUCUCUGAGAGAAAUGCC [C19A U62A],0.05
6,UACGUAGGUGGUUUUCCCCUGAUAGUGCUAAGGGUGCCUGGAAGUUUGGACUGGGCAGAGCUCAACACAGCGUGGCAAAGUGGCUGUGGCUAGACUGCCUCACUGGAUUCCUCGUCACUCAGCAGGGCAUCUCUGAGAGAAAUGCC [G35U U102A],1.8
7,UACGUAGGUGGUUUUCCCCUGAAAGUGCUAAGGGGGCCUGGAAGUUUGGACUGGGCAGAGCUCAACACAGCGUGGCAAAGUGGCUGUGGCUAGACUGCCUCUCUGGAUUCCUCGUCCCUCAGCAGGGCAUCUCUGAGAGAAAUGCC [U23A A117C],1.6
8,UACGUAGGUGGUUUUCCCCUGAUAGUGCUAAGGGGGCCUGGAAGUUUGGACUGGGCAGAGCUCAACACAGCGUGGCAAAGUGGCUGUGGCUAGACUGCCUCUCUGGAUUCCUCGUCACUCAGCGGGGCAUCUCUGAGAGAAAUGCC [A124G],0.98
9,UACGUAGGUGGUCUUCCCCUGAUAGUGCUAAGGGGGCCUGGAAGUUUGGACUGGGCAGAGCUCAACACAGCGUGGCUAAGUGGCUGUGGCUAGACUGCCUCUCUGGAUUCCUCGUCACUCAGCAGGGCAUCUCUGAGAGAAAUGCC [U13C A77U],0.87
10,UACGUAGGUGGUUUUCCCCUGAUAGUGCUAAGGGGGCCUGGAAGUUUGGACUGGGCAGAGCUCAACACAGCGUGGCAAAGUGGCGGUGGCUAGACUGCCUCUCUGGAUUCCUCGUCAUUCAGCAGGGCAUCUCUGAGAGAAAUGCC [U85G C118U],0.14
11,UACGUAGGUGGUUUUCCCCUGAUAGUGCUAGGGGGGCCUGGAAGUUUGGACUGGGCAGAGCUCAACACAGCGUGGCAAAGUGGCUGUGGCUAGACUGCCUCUCAGGAUUCCUCGUCACUCAGCAGGGCAUCUCUGAGAGAAAUGCC [A31G U104A],0.48
12,UACGUAGGUGGUUUUCCCCUGAUAGUGCUAAGGGGGCCUGGAAGUUUGGACUGGGCAGAGCUCAACACAGCGUGGCAAAGUGGCUGUGGCUAGACUGCCUCUCUGGAUUCCUCGGCACUCAGCAGGGCAUCUCUGGGAGAAAUGCC [U115G A136G],1.53
13,UACGUAGGUGGUUUUCCCCUGAUAGUGCUAAGGGGGCCUGGAAGUUGGGACUGGGCAGAGCUCAACACAGCGCGGCAAAGUGGCUGUGGCUAGACUGCCUCUCUGGAUUCCUCGUCACUCAGCAGGGCAUCUCUGAGAGAAAUGCC [U47G U73C],2.66
14,UACGUAGGUGGUUUUCCCCUGAUAGUGCUAAGGGGGCCUGGAAGUUUGGACUGGGCAGAGCUCAACACAGCGUGGCGGAGUGGCUGUGGCUAGACUGCCUCUCUGGAUUCCUCGUCACUCAGCAGGGCAUCUCUGAGAGAAAUGCC [A77G A78G],1.68
15,CACGUAGGUGGUAUUCCCCUGAUAGUGCUAAGGGGGCCUGGAAGUUUGGACUGGGCAGAGCUCAACACAGCGUGGCAAAGUGGCUGUGGCUAGACUGCCUCUCUGGAUUCCUCGUCACUCAGCAGGGCAUCUCUGAGAGAAAUGCC [U1C U13A],0.69
16,UACGUAGGUGGUUUUCCCCUGAUAGUGCUAAGGGGGCCUGGAAGUUUGGACUGGGCAGAGCUCAACACAGCGUGGCAAAGUGGCUGUGGCUAGACUGCCUCUCUGGAUUACUCGUCACCCAGCAGGGCAUCUCUGAGAGAAAUGCC [C110A U119C],1.51
17,UACGUAGGUGGUUUUCCCCUGAUAGUGCUAAGGGGGCCUGGAAGUCUGGACUGGGCAGAGCUCAACACAGCGUGGCAAAGUGGCUGUGGCUAGACUGCCUCUCUGGAUUCCUCGUCACUCAGCAGGGCAUCUCUGAGAUAAAUGCC [U46C G139U],1.7
18,UACGUAGGUGGUUUUCCCCUGAUAGUGCUAAGGGGGCCUGGAAGUUUGGACUGGGCAGAGCUCAACACAGCGUGGCAAAGUGGCUGGGGCUAGACUGCCUCUCUGGAUUCCUCGUCACGCAGCAGGGCAUCUCUGAGAGAAAUGCC [U87G U119G],0.3
19,UACGUAGGUGGUUUUCCUCUGAUGGUGCUAAGGGGGCCUGGAAGUUUGGACUGGGCAGAGCUCAACACAGCGUGGCAAAGUGGCUGUGGCUAGACUGCCUCUCUGGAUUCCUCGUCACUCAGCAGGGCAUCUCUGAGAGAAAUGCC [C18U A24G],1.01

# From the RNAGym collection of RNA variant scans (doi:10.7554/elife.90254)
